Source: patent US20200040396A1 (TECHNION RESEARCH AND DEVELOPMENT FOUNDATION, published 2020)

T1: WT-ZnT2-YC (human, UniProt Q9BRI3 1-372, Carries a C-terminal YC reporter (non-fluorescent C-terminal half of YFP), not included in the letters.)
T1 construct: BiFC construct expressed in living MCF-7 cells; not shown: YC, the C-terminal half of YFP, and any linker to it
T1 sequence: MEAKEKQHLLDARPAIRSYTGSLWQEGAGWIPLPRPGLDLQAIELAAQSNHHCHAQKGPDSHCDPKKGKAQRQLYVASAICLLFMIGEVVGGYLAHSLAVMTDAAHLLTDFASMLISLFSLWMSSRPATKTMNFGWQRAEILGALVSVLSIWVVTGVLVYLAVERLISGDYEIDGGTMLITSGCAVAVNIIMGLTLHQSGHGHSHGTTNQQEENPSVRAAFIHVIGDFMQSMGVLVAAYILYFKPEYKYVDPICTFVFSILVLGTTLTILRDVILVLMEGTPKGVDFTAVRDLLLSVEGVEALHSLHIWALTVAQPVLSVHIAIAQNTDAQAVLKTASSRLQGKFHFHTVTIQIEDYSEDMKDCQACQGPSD

B1: WT-ZnT2-YN (other)
chain: T1 sequence
modifications: Carries a C-terminal YN reporter (non-fluorescent N-terminal half of YFP), not included in the letters.
notes: BiFC construct expressed in living MCF-7 cells; not shown: YN, the N-terminal half of YFP, and any linker to it
B2: Δ9AA-ZnT2-YN (other)
chain: MEAKEKQHLLDARPAIRSYTGSLWQEGAGWIPLPRPGLDLQAIELAAQSNHHCHAQKGPDSHCDPKKGKAQRQLYVASAICLLFMIGEVVGGYLAHSLAVMTDAAHLLTDFASMLISLFSLWMSSRPATKTMNFGWQRAEILGALVSVLSIWVVTGVLVYLAVERLISGDYEIDGGTMLITSGCAVAVNIIMGLTLHQSGHGHSHGTTNQQEENPSVRAAFIHVIGDFMQSMGVLVAAYILYFKPEYKYVDPICTFVFSILVLGTTLTILRDVILVLMEAVRDLLLSVEGVEALHSLHIWALTVAQPVLSVHIAIAQNTDAQAVLKTASSRLQGKFHFHTVTIQIEDYSEDMKDCQACQGPSD
modifications: Carries a C-terminal YN reporter (non-fluorescent N-terminal half of YFP), not included in the letters.
notes: Deletion introduced into the ZnT2 BiFC plasmid by site-directed mutagenesis (27 bp, 839_865del); also called Δ9AA-YN; truncated Δ9AA-ZnT2; not shown: YN, the N-terminal half of YFP, and any linker to it
B3: Δ9AA-ZnT2-YC (other)
chain: B2 chain
modifications: Carries a C-terminal YC reporter (non-fluorescent C-terminal half of YFP), not included in the letters.
notes: Deletion introduced into the ZnT2 BiFC plasmid by site-directed mutagenesis (27 bp, 839_865del); also called Δ9AA-YC; truncated Δ9AA-ZnT2; not shown: YC, the C-terminal half of YFP, and any linker to it

Columns and labels:
β2AR-YC = biological target: T2, β2AR-YC (UniProt P07550 1-413); assay: BiFC in MCF-7 cells, YFP fluorescence by flow cytometry
T2 construct: whole, on cells; Negative control partner in the BiFC assay; not shown: YC: non-fluorescent C-terminal half of YFP (BiFC tag)
Experimental: (§1) The ability of the alternative 3′ splice variant (Δ9AA) ZnT2 to form homodimers was evaluated using the bimolecular fluorescence complementation (BiFC) assay that has been previously applied for the detection of in situ dimerization of ZnT2 and other ZnTs in living cells. High YFP fluorescence intensity indicates a strong interaction between the two tagged proteins, as this enables the refolding of the two non-fluorescent halves of YFP (YN and YC) into a fully fluorescent protein.

WT-ZnT2-YC [1] = biological target: T1, WT-ZnT2-YC; assay: western blot of BiFC transfectants (SDS-metastable dimers), anti-ZnT2 antibody
Experimental: MCF-7 cells were transiently transfected with the designated plasmids (3 μg in single construct transfection and 1.5 μg DNA of each construct in co-transfections). Membrane proteins were isolated on ice using an extraction buffer as previously described (Golan Y., et al., Journal of Biological Chemistry, 2015, 290(14):9050-63). Briefly, proteins (30 μg) were resolved by electrophoresis on 10% polyacrylamide gels, electroblotted onto cellulose nitrate membranes, blocked with Tris-buffered saline (TBS)-milk and reacted with mouse anti-ZnT2 monoclonal antibody (at 1:2,000 dilution, 1 hr at room temperature; generously provided by Prof T Kambe, Kyoto University, Kyoto, Japan). […] Similarly, actual protein loading onto the SDS-PAGE gels was confirmed by blot reprobing with a rabbit polyclonal antibody against the a subunit of Na⁺/K⁺ ATPase (KETTY at 1:3,000 dilution; kindly provided by Prof. S. J. D. Karlish, Weizmann Institute of Science, Rehovot, Israel) and detected with horseradish peroxidase-conjugated goat anti-rabbit IgG (1:15,000 dilution; Jackson Immunoresearch Labs, West Grove, Pa.).
The dimerization results were further confirmed by western blot analysis. […] However, in contrast to the ZnT2 protein which was predominantly present in the homodimer form (FIG. 4C, uppermost band), upon co-transfection of Δ9AA-YN+Δ9AA-YC no homodimers were detected (FIG. 4C). […]

WT-ZnT2-YC [2] = biological target: T1, WT-ZnT2-YC; assay: BiFC in MCF-7 cells, YFP fluorescence by flow cytometry
Experimental: as §1

Δ9AA-ZnT2-YC = biological target: B3; assay: as above
Experimental: as §1

WT-ZnT2-YN = biological target: B1; assay: as above
Experimental: as §1

B1: no binding (β2AR-YC); binds (WT-ZnT2-YC [1]).

B2: no binding (WT-ZnT2-YC [2]); no binding (Δ9AA-ZnT2-YC).

B3: no binding (WT-ZnT2-YN).
